Assay [1] addresses T1, human BTLA ECD-his (monomeric human BTLA-his) (human, UniProt Q7Z6A9 31-157).
T1 construct: extracellular domain; also called human BTLA extracellular domain
T1 sequence (looked up): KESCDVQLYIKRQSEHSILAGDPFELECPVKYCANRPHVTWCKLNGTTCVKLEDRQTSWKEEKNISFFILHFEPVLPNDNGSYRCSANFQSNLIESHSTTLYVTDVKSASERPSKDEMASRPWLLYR
Put plainly: SPR (Biacore T200), antibody captured on anti-human IgG chip, monomeric BTLA-his flowed at 60, 20, 6.7 and 2.2 nM, 1:1 binding model, 25 C [upper right panel (Hu BTLA]. Here is the method: Surface plasmon resonance (SPR) analyses were carried out using a Biacore T200 (GE Healthcare Life Sciences). Kinetic constants were determined using a 1:1 binding model in the Biacore T200 Evaluation Software to calculate on- and off-rates (kₐ and kd, respectively), and dissociation constants as a measure of overall affinity (KD). Anti-human IgG (GE Healthcare Life Sciences) was immobilized on a CMS chip using EDC-activated amine coupling chemistry (420 seconds contact at a flow rate of 10 μl/min). Antibodies (APE10585.04 6G3 IgG1 and APE10840.05 6G3 IgG4), each at 0.5 μg/m1) were captured in a 60 second contact with the flow cell using a flow rate of 10 μl/min. Monomeric human BTLA-his or cynomolgus monkey BTLA-his at 60 nM, 20 nM, 6.7 nM and 2.2 nM concentrations was flowed over captured antibody (480 seconds association, 1800 seconds dissociation). Runs were at 25° C. and used buffer containing 10 mM HEPES, pH 7.6, 150 mM NaCl, 3 mM EDTA, 0.05% polysorbate 20 (HBS-EP+, pH 7.6; Teknova) for the mobile phase and all dilutions. At the end of each cycle, bound antigen was removed by regeneration with two successive exposures (60 seconds and 90 seconds) to 3 M MgCl2 (30 μl/min). Sensorgrams and binding constants corresponding to the experiment are shown in FIG. 1 (human BTLA) and FIG. 1 (cynomolgus monkey BTLA). Antibody capture levels in resonance units (RU) are listed at the right side of each panel.

The target in assay [2] is T2, human BTLA on cells (stably transfected 293c18 cells; human peripheral blood T and B cells) (human, UniProt Q7Z6A9 31-289).
T2 construct: whole, on cells; the cells are named under assay; also called cell surface BTLA; full-length human BTLA
Put plainly: flow cytometry, DyLight 650-labeled 6G3 IgG4 on human peripheral blood CD4+ T cells. Here is the method: PBMCs were washed and incubated at 2×10⁷ cells/ml in FACS buffer (PBS, 1% BSA, 0.02% sodium azide) with Human BD Fc Block (2.5 μg/1×10⁶ cells, BD Biosciences) and LIVE/DEAD® Fixable Yellow Dead Cell Stain (30 μl, ThermoFisher Scientific) for 10 minutes on ice. Cells were washed once in FACS buffer, resuspended in FACS buffer at 1×10⁷ cells/ml and the following phenotyping antibodies added: Alexa Fluor 488-anti-human CD3E clone SK7, Brilliant Violet 421-anti-human CD4 clone OKT4, Brilliant Violet 785-anti-human CD8 clone SK1, and Brilliant Violet 570-anti-human CD20 clone 2H7 (50 μl each; all from BioLegend, Inc.). […] Samples were washed twice in FACS buffer, resuspended in 150 μl/well FACS buffer, and analyzed for fluorescence on a NovoCyte Flow Cytometer (ACEA Biosciences, Inc.). Data were analyzed using NovoExpress Software (ACEA Biosciences, Inc.). Median fluorescence intensities of anti-BTLA or isotype staining on gated CD4⁺ T cells (FIG. 4), CD8⁺ T cells (FIG. 4), or CD20⁺ B cells (FIG. 4) were graphed and curves fit with log(agonist) vs. response (three parameters) least squares fit for EC₅₀ calculation in GraphPad Prism (GraphPad Software, Inc.).
On the technique in general: Flow cytometry measures light scatter and fluorescence of single cells or particles in a stream.

For assay [3], the target named is T3, cynomolgus monkey BTLA ECD-his (monomeric cynomolgus monkey BTLA-his) (cynomolgus monkey, UniProt A0A2K5W7M7 31-157).
T3 construct: extracellular domain; also called cynomolgus monkey BTLA extracellular domain
T3 sequence: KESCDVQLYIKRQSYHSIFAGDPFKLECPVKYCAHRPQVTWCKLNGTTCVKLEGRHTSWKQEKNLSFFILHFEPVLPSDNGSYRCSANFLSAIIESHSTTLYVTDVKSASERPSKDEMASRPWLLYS
As to the kind of experiment: Kinetic Exclusion Assay (KinExA 3000), solution phase, 6G3 IgG4 APE10840.04 at 100 pM, cynomolgus monkey BTLA ECD-his titrated. As for the experimental part: Solution-based affinity measurements of 6G3 IgG4 (APE10840.04 (H Chain SEQ ID NO: 144, L Chain SEQ ID NO: 174)) binding to BTLA were determined on a KinExA 3000 (Sapidyne Instruments). Azlactone beads (ThermoFisher Scientific) were coated with human BTLA ECD-his (30 μg/ml) or cynomolgus monkey BTLA ECD-his (20 μg/ml) in 50 mM Na2CO3 for 2 hours at room temperature and blocked with 10 mg/ml BSA. 6G3 IgG4 APE10840.04 concentration was kept constant at 100 pM for binding in both human and cynomolgus monkey BTLA experiments. Human or cynomolgus monkey BTLA ECD-his was added at 25° C. in 2.5-fold dilutions from 1000 nM to 68 fM. Sample sets were equilibrated at 4° C. for 72 hours and brought to room temperature for 6 hours before capturing free antibody with BTLA-coupled Azlactone beads. […] Maximum and background signals were determined on samples with 6G3 only and buffer only, respectively. Data were analyzed using KinExA Pro Software 3.2.6.
In general terms: A kinetic exclusion assay measures how much of one partner remains free in solution.

B1: 6G3 IgG4 anti-BTLA antibody (APE10840 / APE12839 / APE13308) (antibody, V domains shown)
VH: QVQLVQSGAEVKKPGSSVKVSCKASGYVFSTSWMNWVRQAPGQGLEWMGRIYPGDADTNYVGKFKGRVTITADKSTTTAYMELSSLRSEDTAVYFCAKSGTFNFGNYRWYFDVWGKGTTVTVSS
VL: AIQLTQSPSSLSASVGDRVTITCRVSENIYSHLAWYQQKPGKAPKLLIYAATNLALGVPSRFSGSGSGTDYTLTISSLQPEDFATYYCQLFWGPPLTFGGGTKVEIKR
notes: Humanized antibody from a mouse hybridoma, tested as human IgG4 (detected with anti-human kappa); Some assays used labelled lots (DyLight 650, AF647, biotin, DyL488); also called 6G3 antibody; APE10840.03
For the molecule B1, in assay [1], binding was put at a Kd of 5.35 nM; the koff (in general, the first-order rate constant of dissociation) was determined as 0.0003 s⁻¹; the on-rate (kon) (usually a measure of how fast the partners come together) is 56200 M⁻¹ s⁻¹. In addition, the EC50 (commonly the concentration giving half of the maximal effect) in assay [2] was approximately 2.4 nM. Further, the Kd (commonly the constant that tells how readily two partners part at equilibrium) in assay [3] is approximately 1.66 nM.

Source of the values: US20230391872A1 (ANAPTYSBIO, published 2023).
